From patent US20210130452A1 (Merck KGaA, published 2021) come the findings set out here.

One may read the koff as the first-order rate constant of dissociation. Usually Kd stands for the equilibrium constant for the complex coming apart. Usually IC50 stands for the point on the concentration scale where inhibition reaches its midpoint.

Several values for one entry are separate records, joined by “and”; a condition that tells them apart may be missing. Identical values can stand only once.

The target of assay [1] is T1, human IL-17A/F heterodimer (human, UniProt Q16552 24-155; Q96PD4 31-163, limits assumed).
T1 construct: produced in E. coli, bought from R&D Systems (Cat 5194-IL/CF); also called hIL-17A/F
Kind of assay: SPR.

The target in assay [2] is T2, human IL-17A (human, UniProt Q16552 24-155).
T2 construct: secreted form (GenBank U32659) expressed in Hek293 with C-terminal 6-His; also called hIL-17A; IL-17A-6HIS
Kind of assay: SPR. (SPR reads the build-up and loss of mass on a sensor chip optically.)

For assay [3], the target named is T2, human IL-17A. Put plainly: KinExA, 600 pM Nanobody. (In general: Kinetic exclusion samples the free partner from a solution-phase mixture.)
Assay [4] has as its target T2, human IL-17A. Put plainly: AlphaScreen IL-17A-IL-17RA, average. Background: Bead proximity is the source of the signal in Alpha formats.
Assay [5] concerns the target guinea pig IL-17A (guinea pig). Put plainly: ELISA, coated IL-17A.
Description: (§1) Binding of a selected panel of anti-IL-17 Nanobodies to IL-17 of other species was assessed using a binding ELISA. […] HRP (horseradish peroxidase) conjugated anti-myc (Serotec, MCA 2200P) was used for detection using esTMB as substrate.
Assay [6] has as its target T3, rat IL-17A (rat, UniProt Q61453 18-150, limits assumed).
T3 sequence (looked up): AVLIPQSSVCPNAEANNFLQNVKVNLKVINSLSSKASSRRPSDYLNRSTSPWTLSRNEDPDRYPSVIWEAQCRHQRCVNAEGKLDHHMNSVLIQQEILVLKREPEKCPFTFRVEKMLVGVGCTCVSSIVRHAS
Put plainly: ELISA, coated IL-17A.
Description: as §1

For assay [7], the target named is T4, mouse IL-17A (mouse, UniProt Q62386 26-158).
T4 sequence (looked up): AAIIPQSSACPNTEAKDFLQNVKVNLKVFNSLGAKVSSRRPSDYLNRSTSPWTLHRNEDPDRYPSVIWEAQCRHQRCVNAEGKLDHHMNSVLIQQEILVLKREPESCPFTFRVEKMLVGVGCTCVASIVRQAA
Kind of assay: ELISA, coated IL-17A.
Description: as §1

Assay [8] has as its target T2, human IL-17A. Kind of assay: ELISA, coated IL-17A.
Description: as §1
The target in assay [9] is T5, marmoset IL-17A (marmoset, IL-17A is a disulfide-linked homodimer. One chain is given.).
T5 chain: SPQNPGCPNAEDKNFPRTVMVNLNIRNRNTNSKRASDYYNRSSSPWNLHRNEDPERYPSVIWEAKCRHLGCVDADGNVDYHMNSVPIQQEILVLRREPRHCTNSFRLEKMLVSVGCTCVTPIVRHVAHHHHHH
Kind of assay: ELISA, coated IL-17A.
Description: as §1

Assay [10] concerns the target T2, human IL-17A. Kind of assay: SPR, IL-17A-Nanobody complex over captured IL-17RA.
Excerpt: The receptor (IL-17RA or IL-17RC) was captured via its human Fc-tail by an anti-human IgG-Fc antibody coated on the chip.
Assay [11] addresses T6, marmoset IL-17F (marmoset, UniProt A6N6I9 31-163).
T6 sequence (looked up): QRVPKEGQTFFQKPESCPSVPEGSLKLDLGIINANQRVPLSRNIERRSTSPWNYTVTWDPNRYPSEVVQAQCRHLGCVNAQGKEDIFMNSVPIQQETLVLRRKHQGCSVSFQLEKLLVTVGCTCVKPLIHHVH
Kind of assay: ELISA, coated IL-17F.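 Also: binding ELISA on coated antigen from various species, with bound Nanobodies revealed by an HRP-linked anti-myc antibody and esTMB substrate.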
Description: as §1

Assay [12] concerns the target T7, human IL-17F (human, UniProt Q96PD4 31-163).
T7 construct: GenBank AF384857, expressed in Hek293 as 6-His C-terminal tagged protein; also called hIL-17F; IL-17F-6HIS
T7 sequence: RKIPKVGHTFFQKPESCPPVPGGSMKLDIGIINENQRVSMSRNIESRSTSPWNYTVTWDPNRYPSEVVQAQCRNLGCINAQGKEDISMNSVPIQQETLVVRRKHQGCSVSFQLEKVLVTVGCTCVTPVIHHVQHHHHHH
Kind of assay: ELISA, coated IL-17F.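 Also: binding ELISA on coated antigen from various species, with bound Nanobodies revealed by an HRP-linked anti-myc antibody and esTMB substrate.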
Description: as §1

Assay [13] has as its target T8, human IL-17F (human, UniProt Q96PD4 31-163, biotinylated with Sulfo-NHS-LC-Biotin in the AlphaScreen assays only).
T8 construct: also called hIL-17F; recombinant human IL-17F
T8 sequence: T7 sequence
Kind of assay: SPR Biacore, hIL-17F on chip; periplasmic extract (*); NB = no binding.
Description: (§2) Off-rates of the periplasmic extracts containing anti-IL-17 Nanobodies were measured by Surface Plasmon Resonance (SPR) using a Biacore T100 instrument. […] Periplasmic extracts containing IL-17 neutralizing Nanobodies were injected for 2 minutes at a flow rate of 45 μl/min to allow binding to chip-bound antigen. Next, binding buffer without periplasmic extracts was sent over the chip at the same flow rate to allow spontaneous dissociation of bound Nanobody. From the sensorgrams obtained for the different periplasmic extracts koff-values (k₄) were calculated.

Assay [14] concerns the target T9, human IL-17A (human, UniProt Q16552 24-155, biotinylated with Sulfo-NHS-LC-Biotin in the AlphaScreen assays only).
T9 construct: also called hIL-17A; recombinant human IL-17A
Kind of assay: AlphaScreen competition, hIL-17A - IL-17RC-Fc.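 Also: Read-out after 1 h at room temperature with the receptor Fc-fusion, Acceptor beads and streptavidin-coated Donor beads present.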
Description: (§3) To this mixture, the IL-17RA or IL-17RC Fc-fusions, Acceptor beads and the streptavidin Donor beads were added and further incubated for 1 hour at RT.

The target of assay [15] is T9, human IL-17A. Kind of assay: SPR Biacore, hIL-17A on chip; periplasmic extract (*).
Description: as §2
Assay [16] deals with T9, human IL-17A. Kind of assay: AlphaScreen competition, hIL-17A - IL-17RA-Fc.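 Also: receptor Fc-fusion plus Acceptor and streptavidin Donor beads incubated with the mixture for 1 h at room temperature before reading.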
Description: as §3
The target in assay [17] is T10, human IL-17A/F heterodimer (human, UniProt Q16552 24-155; Q96PD4 31-163, limits assumed, biotinylated with Sulfo-NHS-LC-Biotin in the AlphaScreen assays only).
T10 construct: also called hIL-17A/F
Put plainly: SPR Biacore, hIL-17A/F on chip; periplasmic extract (*); NB = no binding.
Description: as §2

Assay [18] has as its target T9, human IL-17A. Kind of assay: cell-based or functional assay.
The target in assay [19] is T2, human IL-17A. Put plainly: KinExA, 200 pM Nanobody.
Assay [20] deals with T11, mouse IL-17F (mouse, UniProt Q7TNI7 29-161).
T11 sequence (looked up): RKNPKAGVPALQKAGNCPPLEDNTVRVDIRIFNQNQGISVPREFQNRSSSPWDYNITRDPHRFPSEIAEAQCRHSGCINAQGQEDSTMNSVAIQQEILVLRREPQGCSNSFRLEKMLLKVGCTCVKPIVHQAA
Put plainly: ELISA, coated IL-17F.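 Also: binding ELISA on coated antigen from various species, with bound Nanobodies revealed by an HRP-linked anti-myc antibody and esTMB substrate.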
Description: as §1

Assay [21] deals with T12, rat IL-17F (rat, UniProt Q5BJ95 29-161).
T12 sequence (looked up): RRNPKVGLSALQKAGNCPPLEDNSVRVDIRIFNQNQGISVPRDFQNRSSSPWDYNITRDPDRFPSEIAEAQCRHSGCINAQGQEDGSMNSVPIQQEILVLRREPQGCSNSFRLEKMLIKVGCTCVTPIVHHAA
Put plainly: ELISA, coated IL-17F.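 Also: binding ELISA on coated antigen from various species, with bound Nanobodies revealed by an HRP-linked anti-myc antibody and esTMB substrate.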
Description: as §1

Assay [22] addresses T2, human IL-17A. Put plainly: KinExA, 30 pM Nanobody.
Assay [23] deals with T2, human IL-17A. Kind of assay: KinExA, 100 pM Nanobody.
Description: (§4) The affinity of a limited set of formatted Nanobodies was determined using the KinExA.
Assay [24] deals with T2, human IL-17A. Kind of assay: competition ELISA IL17A-RA.
Description: To this end, IL-17RA, respectively IL-17RC was coated at a concentration of 1 μg/ml in PBS.
Assay [25] concerns the target T13, Cynomolgus monkey IL-17F (Cynomolgus monkey, UniProt G7P4V0 31-163).
T13 sequence: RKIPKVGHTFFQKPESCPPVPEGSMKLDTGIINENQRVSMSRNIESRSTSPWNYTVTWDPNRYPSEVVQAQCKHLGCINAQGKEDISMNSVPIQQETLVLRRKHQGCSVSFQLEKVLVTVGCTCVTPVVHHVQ
Kind of assay: cell-based or functional assay.

Assay [26] addresses Cynomolgus monkey IL-17A (Cynomolgus monkey, UniProt A0A2K5TTB0 24-155). Kind of assay: cell-based or functional assay.
The target in assay [27] is T2, human IL-17A. Kind of assay: cell-based or functional assay.
Assay [28] deals with T7, human IL-17F. Put plainly: cell-based or functional assay.
Assay [29] deals with T2, human IL-17A. Put plainly: KinExA, 300 pM Nanobody.
Description: as §4
Assay [30] deals with T7, human IL-17F. Put plainly: KinExA, 300 pM Nanobody.
Description: as §4
The target of assay [31] is T2, human IL-17A. Kind of assay: cell-based or functional assay. The source holds these as a separate data set.
Assay [32] concerns the target T7, human IL-17F. Put plainly: cell-based or functional assay. This is another data set of the same source.
The target of assay [33] is T7, human IL-17F. Put plainly: KinExA, 10 pM Nanobody.
Assay [34] concerns the target T2, human IL-17A. Put plainly: KinExA, 50 pM Nanobody.
Description: as §4
In assay [35] the target is T7, human IL-17F. Put plainly: KinExA, 50 pM Nanobody.
Description: as §4

T2 sequence (Q16552 other isoform, or with tags, fused parts or gaps): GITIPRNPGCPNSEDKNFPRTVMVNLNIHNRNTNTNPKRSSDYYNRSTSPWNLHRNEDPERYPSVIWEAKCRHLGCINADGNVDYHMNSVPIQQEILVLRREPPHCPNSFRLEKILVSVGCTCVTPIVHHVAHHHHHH
T9 sequence (Q16552 other isoform, or with tags, fused parts or gaps): as above
T1 sequence (Q16552 24-155 limits assumed, one chain of several): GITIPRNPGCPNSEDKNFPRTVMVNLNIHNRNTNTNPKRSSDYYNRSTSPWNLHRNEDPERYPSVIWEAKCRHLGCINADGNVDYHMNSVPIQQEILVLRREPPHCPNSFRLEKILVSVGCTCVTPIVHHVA
T10 sequence (Q16552 24-155 limits assumed, one chain of several): as above
Sequence of Cynomolgus monkey IL-17A (A0A2K5TTB0 entry or part of it): as the sequence (Q16552 24-155 limits assumed, one chain of several) above, with T3A, P8S, N34S, I77V, N78K, P104R counted along it

B1: 04G01 (VHH)
VHH: EVQLVESGGGLVQAGGSQRLSCTASGTIVNIHVMGWYRQAPGKQRELVALIFSGGSADYADSVKGRFTISRDNAKNTVYLEMNSLKAEDTAVYYCAAEIGYYSGGTYYSSEAHWGQGTQVTVSS
notes: Class 2; also called IL17MS04G01
With B1, the koff in assay [1] was 0.00023 s⁻¹ and 0.00017 s⁻¹; in assay [2], 0.00018 s⁻¹ and 0.000116 s⁻¹. This molecule also yielded a Kd in assay [3] of 0.0134 nM. For the same molecule, in assay [4], the IC50 came to 0.093 nM. For the same molecule, the OD was 0.008 OD in assay [5]; 0.004 OD in assay [6]; -0.001 OD in assay [7]; 1.9 OD in assay [8]; 1.93 OD in [9]; 0.0005 OD in assay [11]. The OD in [12] was -0.016 OD. In assay [10], the “% Biacore binding (IL-17A-NB)-IL-17RA” value is -0.43%.

B2: 03B08 (VHH)
VHH: EVQLVESGGGLVQAGGSLRLSCAASGFTFDDYAIGWFRQAPGKEREGVSCISSSDGSIYYADSVKGRFTISSDNAKNTVYLQMNSLKPEDTAVYHCARFGRTGWAEECVDYDYWGQGTQVTVSS
notes: Class 1 Nanobody (anti-IL-17A); not shown: c-myc, His6 tag
With B2, the binding result in assay [13] and in assay [17] was “no binding” in each case. The half-inhibitory concentration (IC50) is 0.384 nM in assay [14] and 0.08 nM in assay [16]. The same molecule yielded a koff in assay [15] of 0.0001 s⁻¹. In addition, the “IL-17A-induced IL-6 production in HT-1080 cells, Emax” value in assay [18] amounted to 98.5%. Further, in assay [18], the “IL-17A-induced IL-6 production in HT-1080 cells, IC50” value stood at 3.6 nM.

B3: 01A01 (VHH)
VHH: EVQLVESGGGLVQAGGSLRLSCAASGFTFDDYDIGWFRQAPGKEREGVSCFTSSDGRTFYADSVKGRFTVSADNAKNTVYLQMNSLEPEDTAVYFCAAVNTFDESAYAAFACYDVVRWGQGTQVTVSS
notes: Class 4
Molecule B3 had a Kd in assay [19] of 0.0013 nM. The OD is 0.008 OD in assay [5]; 0.004 OD in assay [6]; -0.003 OD in [7]; 1.83 OD in [8]; 1.84 OD in assay [9]; -0.0005 OD in assay [20]. In [21], this molecule returned an OD of 0.0005 OD. Also, the “% Biacore binding (IL-17A-NB)-IL-17RA” value in assay [10] is -1.04%.

B4: 13E02-SH-Fc (Fc fusion, not shown: a dimerising Fc or GST)
chain: EVQLVESGGGLVQAGGSLRLSCAASGRTYDAMGWLRQAPGKEREFVAAISGSGDDTYYADSVKGRFTISKDNAGITMYLQMNSLKPEDTAVYYCATRRGLYYVWDSNDYENWGQGTQVTVSSEPKSSDKTHTCPPCP
notes: bivalent Fc fusion from Hek-293-6E cells
Turning to B4, the Kd in assay [22] is 0.0036 nM; in [23] it was 0.009 nM.

B5: 13B03-SH-Fc (Fc fusion, not shown: a dimerising Fc or GST)
chain: EVQLVESGGGSVQAGDSLRLSCAASGRANSINWFGWFRQTPGKEREFVAGIRWSDAYTEYANSVKGRFTISRDNAKNTVDLQMDSLKPEDTAVYYCVLDLSTVRYWGQGTQVTVSSEPKSSDKTHTCPPCP
notes: bivalent Fc fusion from Hek-293-6E cells; signal peptide left out; also called MSB0010493; 13B03VHH-SH-Fc
Consider B5, for which the IC50 in assay [24] came to 0.02 nM. In addition, the “IC50, Cyno IL17F, HT-1080 bioassay” value in [25] is 3.8 nM. Besides, the “IC50, Cyno IL17A, HT-1080 bioassay” value in assay [26] came to 0.21 nM. For the same molecule, in assay [27], the “Emax, hIL-17A induced IL-6, HT-1080, without HSA” value was determined as 100% and the “IC50, hIL-17A induced IL-6, HT-1080, without HSA” value turned out to be 0.19 nM. In addition, in assay [28], the “IC50, hIL-17F induced IL-6, HT-1080, without HSA” value came to 5.8 nM. In assay [29], this molecule registered a Kd of 0.0002 nM. Also, the affinity in assay [30], expressed as Kd, was 0.132 nM.

B6: 01G03 (VHH)
VHH: EVQLVESGGGLVQAGGSLRLSCAASERTISNYDMGWFRQAPGKERELIAADISWSALNTNYADSVKGRFTISRDNAKNMVYLQMNNLKPEDTAVYYCAARRSGYASFDNWGQGTQVTVSS
notes: as for B2
For B6, the binding result in [13] and in assay [17] was “no binding” in each case. The IC50 in [14] was determined as 1.15 nM; in [16] it was 0.325 nM. The same molecule gave a koff in assay [15] of 0.00045 s⁻¹. Also, the “IL-17A-induced IL-6 production in HT-1080 cells, Emax” value in assay [18] was found to be 85.7%. Besides, the “IL-17A-induced IL-6 production in HT-1080 cells, IC50” value in assay [18] worked out at 68.3 nM.

B7: 13B03-LH-Fc (Fc fusion, not shown: a dimerising Fc or GST)
chain: EVQLVESGGGSVQAGDSLRLSCAASGRANSINWFGWFRQTPGKEREFVAGIRWSDAYTEYANSVKGRFTISRDNAKNTVDLQMDSLKPEDTAVYYCVLDLSTVRYWGQGTQVTVSSEPKTPKPQPQPQPQPNPTTESKCPKCP
notes: bivalent Fc fusion from Hek-293-6E cells; also called MSB0010530
For B7, in assay [24], the IC50 was 0.031 nM. Besides, the “Emax, hIL-17A induced IL-6, HT-1080, 100 µM HSA” value in [31] was 97.5%. Also, in assay [31], the “IC50, hIL-17A induced IL-6, HT-1080, 100 µM HSA” value was 0.95 nM. Further, the “IC50, hIL-17F induced IL-6, HT-1080, 100 µM HSA” value in assay [32] amounted to 15.6 nM. The Kd in assay [33] was 0.0223 nM; in [34], 0.002 nM; in assay [35] it was 0.02 nM.
